Test results: US20150197558A1 (published 2015)
Numbering of substitutions follows the chain as printed.

How the values were obtained:
[1] = molecular target: peptide 20 of the set of overlapping 15-mer peptides from the IHF of Staphylococcus aureus (Staphylococcus aureus); experiment: peptide binding on streptavidin plates
[2] = molecular target: peptide 26 of the set of overlapping 15-mer peptides from the IHF of Staphylococcus aureus (Staphylococcus aureus); experiment: peptide binding on streptavidin plates
[3] = molecular target: peptide 19 of the set of overlapping 15-mer peptides from the IHF of Staphylococcus aureus (Staphylococcus aureus); experiment: peptide binding on streptavidin plates
[4] = molecular target: T1, IHF from Haemophilus influenzae (Haemophilus influenzae, UniProt P43723 1-96); experiment: ELISA
T1 construct: also called IHF (Hi); H. influenzae; not shown: poly-histidine tag
T1 sequence: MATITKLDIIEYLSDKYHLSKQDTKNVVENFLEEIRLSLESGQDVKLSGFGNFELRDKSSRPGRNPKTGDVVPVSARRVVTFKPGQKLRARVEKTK

[5] = molecular target: T2, IHF from Staphylococcus aureus (Staphylococcus aureus, UniProt Q5HFV0 1-90); experiment: ELISA
T2 construct: also called IHF (Sa); HU; not shown: poly-histidine tag
T2 sequence: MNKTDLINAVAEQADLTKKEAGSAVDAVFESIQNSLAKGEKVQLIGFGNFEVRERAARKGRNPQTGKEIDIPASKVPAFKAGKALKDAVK

[6] = molecular target: T3, IHF from Acinetobacter baumannii (Acinetobacter baumannii, UniProt A3M2B0 1-98); experiment: ELISA, antigen coated, half-maximal binding concentration printed as Affinity (pM)
T3 construct: also called Ab
T3 sequence: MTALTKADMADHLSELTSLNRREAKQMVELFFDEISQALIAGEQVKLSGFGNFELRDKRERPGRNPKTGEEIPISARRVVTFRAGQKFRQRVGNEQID

[7] = molecular target: T2, IHF from Staphylococcus aureus; experiment: as above
[8] = molecular target: T4, IHF from Pseudomonas aeruginosa (Pseudomonas aeruginosa, UniProt Q51472 2-100); experiment: ELISA
T4 construct: also called IHF (Pa); P. aeruginosa; not shown: poly-histidine tag
T4 sequence: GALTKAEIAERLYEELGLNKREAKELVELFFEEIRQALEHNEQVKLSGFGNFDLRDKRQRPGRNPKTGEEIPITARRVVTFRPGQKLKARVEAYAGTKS

[9] = molecular target: T5, IHF from Klebsiella pneumoniae (Klebsiella pneumoniae, UniProt A6TAI1 1-99); experiment: ELISA
T5 construct: also called IHF (Kp); K. pneumoniae
T5 sequence: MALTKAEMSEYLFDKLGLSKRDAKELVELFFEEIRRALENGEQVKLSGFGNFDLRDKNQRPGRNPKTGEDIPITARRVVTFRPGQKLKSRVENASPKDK

[10] = molecular target: IHF target of the pH table of Example 7 (homolog not stated); experiment: pH dependence of binding, pH 3.5; ELISA per legend of FIGS. 6A-6B
[11] = molecular target: IHF target of the pH table of Example 7 (homolog not stated); experiment: pH dependence of binding, pH 7.5; ELISA per legend of FIGS. 6A-6B
[12] = molecular target: T1, IHF from Haemophilus influenzae; experiment: ELISA, antigen coated, half-maximal binding concentration printed as Affinity (pM)
[13] = molecular target: T4, IHF from Pseudomonas aeruginosa; experiment: as above
[14] = molecular target: T5, IHF from Klebsiella pneumoniae; experiment: as above
[15] = molecular target: IHF target of the pH table of Example 7 (homolog not stated); experiment: pH dependence of binding, pH 5.5; ELISA per legend of FIGS. 6A-6B
[16] = molecular target: IHF target of the pH table of Example 7 (homolog not stated); experiment: pH dependence of binding, pH 6.5; ELISA per legend of FIGS. 6A-6B
[17] = molecular target: IHF target of the pH table of Example 7 (homolog not stated); experiment: pH dependence of binding, pH 2.5; ELISA per legend of FIGS. 6A-6B
[18] = molecular target: IHF target of the pH table of Example 7 (homolog not stated); experiment: pH dependence of binding, pH 4.5; ELISA per legend of FIGS. 6A-6B
[19] = molecular target: T1, IHF from Haemophilus influenzae; experiment: BLI, ForteBio Octet QK, ratio of on and off rates
[20] = molecular target: T4, IHF from Pseudomonas aeruginosa; experiment: BLI, ForteBio Octet QK, ratio of on and off rates
[21] = molecular target: T2, IHF from Staphylococcus aureus; experiment: BLI, ForteBio Octet QK, ratio of on and off rates
[22] = molecular target: T5, IHF from Klebsiella pneumoniae; experiment: BLI, ForteBio Octet QK, ratio of on and off rates
[23] = molecular target: T1, IHF from Haemophilus influenzae; experiment: ELISA, antigen coated
[24] = molecular target: T3, IHF from Acinetobacter baumannii; experiment: ELISA, antigen coated
[25] = molecular target: T4, IHF from Pseudomonas aeruginosa; experiment: ELISA, antigen coated
[26] = molecular target: T5, IHF from Klebsiella pneumoniae; experiment: ELISA, antigen coated

B1: TRL1335 (antibody, V domains shown)
VH: QVQLVESGAEVKKPGESLKISCKGSGYNFTSYWIGWVRQMPGKGLEWMGVIYPDDSDTRYSPSFKGQVTISADKSISTAFLQWSSLKASDTAVYHCARPPDSWGQGTLVTVSS
VL: DIVMTQSPATLSVSPGERATLSCRASQSVSSNLAWYQQKPGLAPRLLIVGASNRATGIPARFSGSGSGTEFTLTISSLQSEDFAFYYCQQYNNWPFTFGPGTKVDVKR
binding result [1]: no binding | binding result [2]: no binding | binding result [3]: no binding

B2: TRL1070 (antibody, V domains shown)
VH: QVQLVQSGGTLVQPGGSLRLSCAASGFTFSYYSMSWVRQAPGKGLEWVANIKHDGTERNYVDSVKGRFTISRDNSEKSLYLQMNSLRAEDTAVYYCAKYYYGAGTNYPLKYWGQGTRVTVSS
VL: DILMTQSPSSLSASVGDRVTITCRASQGIRNDLGWYQQKPGKAPKLLIYAASSLQSGVPSRFSGSGSGTDFTLTISSLQPEDFATYYCLQDYNYPLTFGGGTKVEIKR
OD [4]: 0.11 OD | OD [5]: 0.3 OD

B3: TRL1215 (antibody, V domains shown)
VH: QVQLVESGTEVKNPGASVKVSCTASGYKFDEYGVSWVRQSPGQGLEWMGWISVYNGKTNYSQNFQGRLTLTTETSTDTAYMELTSLRPDDTAVYYCATDKNWFDPWGPGTLVTVSS
VL: DIVMTQSPSASGSPGQSITISCTGTNTDYNYVSWYQHHPGKAPKVIIYDVKKRPSGVPSRFSGSRSGNTATLTVSGLQTEDEADYYCVSYADNNHYVFGSGTKVTVL
OD [5]: 1.4 OD

B4: TRL1330 (antibody, V domains shown)
VH: B3 VH
VL: B3 VL with M4L
EC50 [6]: 0.017 nM | EC50 [7]: 0.023 nM

B5: TRL1216 (antibody, V domains shown)
VH: QVQLVESGGGVVQPGGSLRVSCAASAFSFRDYGIHWVRQAPGKGLQWVAVISHDGGKKFYADSVRGRFTISRDNSENTLYLQMNSLRSDDTAVYYCARLVASCSGSTCTTQPAAFDIWGPGTLVTVSS
VL: DIMLTQPPSVSVSPGQTARITCSGDALPKKYTYWYQQKSGQAPVLLIYEDRKRPSEIPERFSAFTSWTTATLTITGAQVRDEADYYCYSTDISGDIGVFGGGTKLTVL
OD [4]: 0.06 OD | OD [5]: 0.5 OD

B6: TRL1087 (antibody, V domains shown)
VH: QVQLLESGPGLVRPSDTLSLTCTFSADLSTNAYWTWIRQPPGKGLEWIGYMSHSGGRDYNPSFNRRVTISVDTSKNQVFLRLTSVTSADTAVYFCVREVGSYYDYWGQGILVTVSS
VL: DIEMTQSPSSLSASVGDRITITCRASQGISTWLAWYQQKPGKAPKSLIFSTSSLHSGVPSKFSGSGSGTDFTLTITNLQPEDFATYYCQQKWETPYSFGQGTKLDMIR
OD [4]: 0.06 OD | OD [8]: 0.06 OD | OD [5]: 0.14 OD | OD [9]: 0.06 OD

B7: TRL1230 (antibody, V domains shown)
VH: QVQLVQSGGGLVKPGGSLRLSCGASGFNLSSYSMNWVRQAPGKGLEWVSSISSRSSYIYYADSVQGRFTISRDNAKNSLYLQMNSLRAEDTAIYYCARVSPSTYYYYGMDVWGQGTTVTVSS
VL: DIVLTQPSSVSVSPGQTARITCSGDELPKQYAYWYQQKPGQAPVLVIYKDNERPSGIPERFSGSSSGTTVTLTISGVQAEDEADYYCQSADSSGTYVVFGGGTKLTVL
OD [4]: 0.06 OD | OD [8]: 0.3 OD | OD [5]: 0.1 OD | OD [9]: 0.07 OD

B8: TRL1232 (antibody, V domains shown)
VH: QVQLVESGAEVKKPGALVKVSCKASGYTFSGYYMHWVRQAPGQGLEWMGWINPKSGGTKYAQKFQGRVTMTRDTSISTAYMELSRLRSDDTAVYFCARGGPSNLERFLERLQPRYSYDDKYAMDVWGQGTTVTVSS
VL: DIVMTQSPGTLSLSPGARATLSCRASQSVSSIYLAWYQQKPGQAPRLLIFGASSRATGIPDRFSGSGSGTDFTLTISRLEPEDFAVYYCQQYGSSPYTFGQGTKLEIKR
OD [4]: 0.1 OD | OD [8]: 0.2 OD | OD [5]: 0.2 OD | OD [9]: 0.1 OD

B9: TRL1068 (antibody, V domains shown)
VH: QVQLVESGPGLVKPSETLSLTCRVSGDSNRPSYWSWIRQAPGKAMEWIGYVYDSGVTIYNPSLKGRVTISLDTSKTRFSLKLTSVIAADTAVYYCARERFDRTSYKSWWGQGTQVTVSS
VL: DIVLTQAPGTLSLSPGDRATLSCRASQRLGGTSLAWYQHRSGQAPRLILYGTSNRATDTPDRFSGSGSGTDFVLTISSLEPEDFAVYYCQQYGSPPYTFGQGTTLDIK
Kd [10]: 1.2 nM | Kd [11]: 0.007 nM | EC50 [12]: 5 nM | EC50 [6]: 0.01 nM | EC50 [13]: 0.011 nM | EC50 [7]: 0.015 nM | EC50 [14]: 0.011 nM | Kd [15]: 0.009 nM | Kd [16]: 0.0076 nM | Kd [17]: 2.7 nM | Kd [18]: 0.0236 nM | Kd [19]: 350 nM | Kd [20]: 1 nM | Kd [21]: 1 nM | Kd [22]: 7 nM

B10: TRL1337 (antibody, V domains shown)
VH: QVQLLESGPGLVKPSETPSLTCTVSGGSIRSYYWSWIRQPPGKGLEWIGYIYYSGSTNYNPSLKSRVTISVDMSKNQFSLKLSSVTAADTAMYYCARVYGGSGSYDFDYWGQGTLVTVSS
VL: DIVLTQSPSASGSPGQSVTISCTGTSSDVGGYNYVSWYQQLPGKAPKLMIYEVTKRPSGVPDRFSGSKSGNTASLTVSGLQAEDEADYYCSSFAGSNNHVVFGGGTKLTVL
binding result [23]: no binding | binding result [24]: no binding | binding result [25]: no binding | binding result [26]: no binding

B11: TRL1218 (antibody, V domains shown)
VH: QVQLLESGADMVQPGRSLRLSCAASGFNFRTYAMHWVRQAPGKGLEWVAVMSHDGYTKYYSDSVRGQFTISRDNSKNTLYLQMNNLRPDDTAIYYCARGLTGLSVGFDYWGQGTLVTVSS
VL: DIVLTQSASVSGSPGQSITISCTGTSSDVGGYNYVSWYQQHPGKAPKLMIYDVTTRPSGVSDRFSGSKSGNTASLTISGLQAEDEADYYCSSYSSGSTPALFGGGTQLTVL
OD [4]: 0.04 OD | OD [8]: 0.09 OD | OD [9]: 0.06 OD
